Data reported in the supplement of paper PMC9112550, “Optimization of the antimicrobial peptide Bac7 by deep mutational scanning” (BMC Biology, 2022).

These sequences were tested on Escherichia coli TOP10 (assay: shrunken log2 fold change of peptide-encoding DNA abundance (4.5 h post-induction vs induction); higher = less antimicrobial activity (less host growth inhibition)). Conditions: time post-induction: 4.5 h; library: site-saturation at positions 5, 18, 19, 20.
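Note: peptides expressed intracellularly from a pBAD plasmid library in pooled LB shake-flask culture, induced with 0.3% L-arabinose, DNA abundance read by NGS, three biological replicates, DESeq2 with apeglm shrinkage.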

| Sequence | shrunken log2 fold change |
| --- | --- |
| RRIRHRPPRLPRPRPRPCMVPRP | -0.342 |
| RRIRTRPPRLPRPRPRPMSNPRP | -0.535 |
| RRIRNRPPRLPRPRPRPIQVPRP | -0.0304 |
| RRIRFRPPRLPRPRPRPACHPRP | -0.0466 |
| RRIRARPPRLPRPRPRPLIIPRP | -0.415 |
| RRIRDRPPRLPRPRPRPYTQPRP | -0.165 |
| RRIRTRPPRLPRPRPRPINCPRP | 0.00543 |
| RRIRGRPPRLPRPRPRPQKHPRP | 0.982 |
| RRIRLRPPRLPRPRPRPSDVPRP | -0.533 |
| RRIRGRPPRLPRPRPRPYIPPRP | -0.801 |
| RRIRTRPPRLPRPRPRPEGAPRP | 0.783 |
| RRIRARPPRLPRPRPRPYEPPRP | 0.116 |
| RRIRWRPPRLPRPRPRPLAAPRP | 0.994 |
| RRIRLRPPRLPRPRPRPDKEPRP | 0.0143 |
| RRIRHRPPRLPRPRPRPTPAPRP | 0.681 |
| RRIRDRPPRLPRPRPRPLALPRP | 0.0811 |
| RRIRWRPPRLPRPRPRPLGGPRP | 0.253 |
| RRIRPRPPRLPRPRPRPAENPRP | -0.197 |
| RRIRQRPPRLPRPRPRPHVHPRP | -0.124 |
| RRIRARPPRLPRPRPRPCLHPRP | 1.24 |
| RRIRNRPPRLPRPRPRPKIDPRP | -0.626 |
| RRIRKRPPRLPRPRPRPSCDPRP | 0.141 |
| RRIRCRPPRLPRPRPRPIFDPRP | -0.191 |
| RRIRLRPPRLPRPRPRPIFQPRP | -0.192 |
| RRIRCRPPRLPRPRPRPGWEPRP | 0.253 |

| Sequence | shrunken log2 fold change |
| --- | --- |
| RRIRARPPRLPRPRPRPHPSPRP | 0.327 |
| RRIRFRPPRLPRPRPRPKCNPRP | -0.238 |
| RRIRVRPPRLPRPRPRPRPKPRP | 0.521 |
| RRIRDRPPRLPRPRPRPRVHPRP | -0.0969 |
| RRIRDRPPRLPRPRPRPSESPRP | -0.000946 |
| RRIRVRPPRLPRPRPRPNRRPRP | -0.0977 |
| RRIRKRPPRLPRPRPRPRPRPRP | 1.01 |
| RRIRMRPPRLPRPRPRPSWRPRP | 0.194 |
| RRIRERPPRLPRPRPRPTDFPRP | -0.13 |
| RRIRCRPPRLPRPRPRPFSIPRP | -0.261 |
| RRIRCRPPRLPRPRPRPPCHPRP | 0.3 |
| RRIRARPPRLPRPRPRPGTNPRP | 0.204 |
| RRIRWRPPRLPRPRPRPNGYPRP | 0.186 |
| RRIRPRPPRLPRPRPRPMKSPRP | -0.0679 |
| RRIRQRPPRLPRPRPRPKHLPRP | 0.0736 |
| RRIRPRPPRLPRPRPRPIKQPRP | 0.109 |
| RRIRARPPRLPRPRPRPFKPPRP | -0.0739 |
| RRIRFRPPRLPRPRPRPHNMPRP | -0.896 |
| RRIRIRPPRLPRPRPRPHVSPRP | -0.0557 |
| RRIRIRPPRLPRPRPRPVKTPRP | -0.0343 |
| RRIRDRPPRLPRPRPRPSRKPRP | -0.0764 |
| RRIRCRPPRLPRPRPRPSHWPRP | -0.204 |
| RRIRMRPPRLPRPRPRPQQFPRP | 0.359 |
| RRIRMRPPRLPRPRPRPWEEPRP | 0.317 |
| RRIRGRPPRLPRPRPRPTMHPRP | 0.715 |

| Sequence | shrunken log2 fold change |
| --- | --- |
| RRIRSRPPRLPRPRPRPCCHPRP | -0.0953 |
| RRIRIRPPRLPRPRPRPSLFPRP | -0.66 |
| RRIRDRPPRLPRPRPRPNREPRP | -0.00168 |
| RRIRSRPPRLPRPRPRPPNQPRP | 0.134 |
| RRIRWRPPRLPRPRPRPNKNPRP | -0.0787 |
| RRIRGRPPRLPRPRPRPLKIPRP | 0.365 |
| RRIRSRPPRLPRPRPRPPCEPRP | -0.236 |
| RRIRWRPPRLPRPRPRPFPPPRP | -0.0255 |
| RRIRIRPPRLPRPRPRPSQQPRP | -0.11 |
| RRIRFRPPRLPRPRPRPPMMPRP | -0.0466 |
| RRIRDRPPRLPRPRPRPEWCPRP | 0.272 |
| RRIRMRPPRLPRPRPRPHGDPRP | -0.0284 |
| RRIRHRPPRLPRPRPRPQWGPRP | -0.149 |
| RRIRHRPPRLPRPRPRPYKEPRP | -0.00664 |
| RRIRSRPPRLPRPRPRPEPDPRP | 0.953 |
| RRIRYRPPRLPRPRPRPCIKPRP | 1.75 |
| RRIRHRPPRLPRPRPRPNELPRP | 0.031 |
| RRIRLRPPRLPRPRPRPTCIPRP | -0.123 |
| RRIRARPPRLPRPRPRPPEFPRP | 0.558 |
| RRIRQRPPRLPRPRPRPFYEPRP | -0.413 |
| RRIRHRPPRLPRPRPRPRLLPRP | -0.113 |
| RRIRLRPPRLPRPRPRPLSWPRP | 0.0186 |
| RRIRHRPPRLPRPRPRPRYTPRP | -0.123 |
| RRIRSRPPRLPRPRPRPNHEPRP | -0.175 |
| RRIRTRPPRLPRPRPRPEMTPRP | 0.0523 |

| Sequence | shrunken log2 fold change |
| --- | --- |
| RRIRSRPPRLPRPRPRPLCDPRP | 0.155 |
| RRIRFRPPRLPRPRPRPRTLPRP | 0.165 |
| RRIRARPPRLPRPRPRPDYWPRP | 0.139 |
| RRIRMRPPRLPRPRPRPKAQPRP | 1.72 |
| RRIRWRPPRLPRPRPRPHQKPRP | 0.0146 |
| RRIRGRPPRLPRPRPRPRWRPRP | 0.973 |
| RRIRIRPPRLPRPRPRPAPNPRP | 0.0272 |
| RRIRKRPPRLPRPRPRPICEPRP | 0.115 |
| RRIRVRPPRLPRPRPRPKHTPRP | -0.177 |
| RRIRGRPPRLPRPRPRPCEHPRP | 0.149 |
| RRIRERPPRLPRPRPRPSEYPRP | -0.27 |
| RRIRDRPPRLPRPRPRPKLFPRP | 0.168 |
| RRIRHRPPRLPRPRPRPDNVPRP | -0.02 |
| RRIRARPPRLPRPRPRPIYRPRP | -0.0972 |
| RRIRFRPPRLPRPRPRPGPCPRP | 0.0242 |
| RRIRFRPPRLPRPRPRPNMFPRP | -0.259 |
| RRIRVRPPRLPRPRPRPCGAPRP | 0.279 |
| RRIRARPPRLPRPRPRPKQKPRP | 0.529 |
| RRIRCRPPRLPRPRPRPMNQPRP | -0.248 |
| RRIRYRPPRLPRPRPRPHKKPRP | -0.0787 |
| RRIRWRPPRLPRPRPRPLQEPRP | 0.36 |
| RRIRSRPPRLPRPRPRPMLTPRP | -0.0725 |
| RRIRNRPPRLPRPRPRPPMVPRP | -0.0558 |
| RRIRRRPPRLPRPRPRPMFMPRP | -0.192 |
| RRIRQRPPRLPRPRPRPFLIPRP | -1.81 |

| Sequence | shrunken log2 fold change |
| --- | --- |
| RRIRSRPPRLPRPRPRPDDAPRP | 0.162 |
| RRIRMRPPRLPRPRPRPYTQPRP | -0.149 |
| RRIRHRPPRLPRPRPRPPHYPRP | 0.0175 |
| RRIRCRPPRLPRPRPRPHGHPRP | -0.167 |
| RRIRTRPPRLPRPRPRPCNHPRP | -0.214 |
| RRIRNRPPRLPRPRPRPLWCPRP | -0.0608 |
| RRIRQRPPRLPRPRPRPTYTPRP | -0.346 |
| RRIRDRPPRLPRPRPRPQMDPRP | -0.0397 |
| RRIRNRPPRLPRPRPRPWMTPRP | -0.189 |
| RRIRKRPPRLPRPRPRPITHPRP | -0.0971 |
| RRIRCRPPRLPRPRPRPRTSPRP | 0.00938 |
| RRIRCRPPRLPRPRPRPQKKPRP | -0.0243 |
| RRIRMRPPRLPRPRPRPKVDPRP | -0.0311 |
| RRIRIRPPRLPRPRPRPAFPPRP | -0.0288 |
| RRIRFRPPRLPRPRPRPWFFPRP | -0.393 |
| RRIRARPPRLPRPRPRPRMIPRP | 0.219 |
| RRIRVRPPRLPRPRPRPMWCPRP | -0.139 |
| RRIRIRPPRLPRPRPRPFQSPRP | -0.469 |
| RRIRIRPPRLPRPRPRPCHLPRP | -0.281 |
| RRIRYRPPRLPRPRPRPYQVPRP | -0.289 |
| RRIRVRPPRLPRPRPRPIKIPRP | -0.251 |
| RRIRWRPPRLPRPRPRPMSNPRP | 0.0465 |
| RRIRMRPPRLPRPRPRPPVVPRP | 0.753 |
| RRIRNRPPRLPRPRPRPLCQPRP | -0.307 |
| RRIRSRPPRLPRPRPRPLWKPRP | 0.197 |

| Sequence | shrunken log2 fold change |
| --- | --- |
| RRIRWRPPRLPRPRPRPTDWPRP | 0.581 |
| RRIRNRPPRLPRPRPRPFHRPRP | -0.211 |
| RRIRSRPPRLPRPRPRPMGNPRP | 0.0909 |
| RRIRRRPPRLPRPRPRPGTAPRP | 0.414 |
| RRIRLRPPRLPRPRPRPSAYPRP | 0.0888 |
| RRIRRRPPRLPRPRPRPLLLPRP | 0.0522 |
| RRIRMRPPRLPRPRPRPKPFPRP | 0.236 |
| RRIRARPPRLPRPRPRPWWHPRP | -0.0749 |
| RRIRFRPPRLPRPRPRPLKKPRP | 0.251 |
| RRIRVRPPRLPRPRPRPVVCPRP | 0.251 |
| RRIRRRPPRLPRPRPRPYWFPRP | -0.299 |
| RRIRDRPPRLPRPRPRPNHGPRP | 1.15 |
| RRIRNRPPRLPRPRPRPNSRPRP | -0.266 |
| RRIRTRPPRLPRPRPRPACRPRP | 0.206 |
| RRIRCRPPRLPRPRPRPCMCPRP | -0.668 |
| RRIRLRPPRLPRPRPRPRVGPRP | 0.295 |
| RRIRGRPPRLPRPRPRPGKFPRP | 0.427 |
| RRIRRRPPRLPRPRPRPEMSPRP | 0.0923 |
| RRIRPRPPRLPRPRPRPAFEPRP | 0.139 |
| RRIRNRPPRLPRPRPRPTYAPRP | 0.027 |
| RRIRDRPPRLPRPRPRPCDMPRP | -0.0013 |
| RRIRHRPPRLPRPRPRPYDNPRP | -0.0737 |
| RRIRGRPPRLPRPRPRPCVHPRP | 0.107 |
| RRIRPRPPRLPRPRPRPQEVPRP | 0.0706 |
| RRIRNRPPRLPRPRPRPIKDPRP | -0.4 |
